The source of these data is patent publication US20260139055A1.

To fix the notation:
B1: canine IgGB (65) mAb with mutation A426P (antibody, part only; not given: Variable domains, not shown: another chain or arm of the molecule)
constant: ASTTAPSVFPLAPSCGSTSGSTVALACLVSGYFPEPVTVSWNSGSLTSGVHTFPSVLQSSGLYSLSSMVTVPSSRWPSETFTCNVAHPASKTKVDKPVPKRENGRVPRPPDCPKCPAPEMLGGPSVFIFPPKPKDTLLIARTPEVTCVVVDLDPEDPEVQISWFVDGKQMQTAKTQPREEQFNGTYRVVSVLPIGHQDWLKGKQFTCKVNNKALPSPIERTISKARGQAHQPSVYVLPPSREELSKNTVSLTCLIKDFFPPDIDVEWQSNGQQEPESKYRTTPPQLDEDGSYFLYSKLSVDKSRWQRGDTFICPVMHEALHNHYTQESLSHSPGK
B2: canine IgGB (65) mAb with mutation Y436P (antibody, part only; not given: variable domains of unnamed mAb, not shown: another chain or arm of the molecule)
constant: B1 constant with P314A, Y324P
B3: canine IgGB (65) mAb with mutation A426S (antibody, part only; not given: Variable domains, not shown: another chain or arm of the molecule)
constant: B1 constant with P314S
B4: canine IgGB (65) mAb with mutation Y436V (antibody, part only; not given: variable domains of unnamed mAb, not shown: another chain or arm of the molecule)
constant: B1 constant with P314A, Y324V
B5: canine IgGB (65) mAb with mutation A426W (antibody, part only; not given: variable domains of unnamed mAb, not shown: another chain or arm of the molecule)
constant: B1 constant with P314W
B6: canine IgGB (65) mAb with mutation Y436Q (antibody, part only; not given: Variable domains, not shown: another chain or arm of the molecule)
constant: B1 constant with P314A, Y324Q
B7: canine IgGB (65) mAb with mutation Y436C (antibody, part only; not given: Variable domains, not shown: another chain or arm of the molecule)
constant: B1 constant with P314A, Y324C
B8: canine IgGB (65) mAb with mutation T286M (antibody, part only; not given: variable domains of unnamed mAb, not shown: another chain or arm of the molecule)
constant: B1 constant with T172M, P314A
B9: canine IgGB (65) mAb with mutation A426R (antibody, part only; not given: variable domains of unnamed mAb, not shown: another chain or arm of the molecule)
constant: B1 constant with P314R
B10: canine IgGB (65) mAb with mutation T286I (antibody, part only; not given: Variable domains, not shown: another chain or arm of the molecule)
constant: B1 constant with T172I, P314A
B11: canine IgGB (65) mAb with mutation Y436K (antibody, part only; not given: variable domains of unnamed mAb, not shown: another chain or arm of the molecule)
constant: B1 constant with P314A, Y324K
B12: canine IgGB (65) mAb with mutation Y436I (antibody, part only; not given: variable domains of unnamed mAb, not shown: another chain or arm of the molecule)
constant: B1 constant with P314A, Y324I
B13: canine IgGB (65) mAb with mutation Y436F (antibody, part only; not given: Variable domains, not shown: another chain or arm of the molecule)
constant: B1 constant with P314A, Y324F
B14: canine IgGB (65) mAb with mutation Y436E (antibody, part only; not given: Variable domains, not shown: another chain or arm of the molecule)
constant: B1 constant with P314A, Y324E
B15: canine IgGB (65) mAb with mutation Y436T (antibody, part only; not given: Variable domains, not shown: another chain or arm of the molecule)
constant: B1 constant with P314A, Y324T
B16: canine IgGB (65) mAb with mutation A426V (antibody, part only; not given: Variable domains, not shown: another chain or arm of the molecule)
constant: B1 constant with P314V
B17: canine IgGB (65) mAb with mutation Y436R (antibody, part only; not given: Variable domains, not shown: another chain or arm of the molecule)
constant: B1 constant with P314A, Y324R
B18: canine IgGB (65) mAb with mutation Y436G (antibody, part only; not given: Variable domains, not shown: another chain or arm of the molecule)
constant: B1 constant with P314A, Y324G
B19: canine IgGB (65) mAb with mutation Y436N (antibody, part only; not given: variable domains of unnamed mAb, not shown: another chain or arm of the molecule)
constant: B1 constant with P314A, Y324N
B20: canine IgGB (65) mAb with mutation Y436M (antibody, part only; not given: Variable domains, not shown: another chain or arm of the molecule)
constant: B1 constant with P314A, Y324M
B21: canine IgGB (65) mAb with mutation Y436S (antibody, part only; not given: variable domains of unnamed mAb, not shown: another chain or arm of the molecule)
constant: B1 constant with P314A, Y324S
B22: canine IgGB (65) mAb with mutation A426Q (antibody, part only; not given: variable domains of unnamed mAb, not shown: another chain or arm of the molecule)
constant: B1 constant with P314Q
B23: canine IgGB (65) mAb with mutation A426T (antibody, part only; not given: variable domains of unnamed mAb, not shown: another chain or arm of the molecule)
constant: B1 constant with P314T
B24: canine IgGB (65) mAb with mutation Y436L (antibody, part only; not given: variable domains of unnamed mAb, not shown: another chain or arm of the molecule)
constant: B1 constant with P314A, Y324L
B25: canine IgGB (65) mAb with mutation T286K (antibody, part only; not given: Variable domains, not shown: another chain or arm of the molecule)
constant: B1 constant with T172K, P314A
B26: canine IgGB (65) mAb with mutation Y436D (antibody, part only; not given: Variable domains, not shown: another chain or arm of the molecule)
constant: B1 constant with P314A, Y324D
B27: canine IgGB (65) mAb with mutation Y436W (antibody, part only; not given: variable domains of unnamed mAb, not shown: another chain or arm of the molecule)
constant: B1 constant with P314A, Y324W

Positions count from the first letter of the chain named. Numbers in names are those of the source.

The target of this test is canine FcRn complex (FcRn-alpha subunit and beta-microglobulin), His-tagged, biotin labeled (canine). Briefly: SPR (Biacore), biotin-FcRn captured on SA surface, IgG flowed over, pH 6, 15 C. For orientation: In SPR one partner is held on a chip, and binding of the other changes the refractive index at the surface.
B1 gave a dissociation constant (Kd) of 23.7 nM.

Molecule B2 gave a Kd of 668 nM.

As to B3, the dissociation constant (Kd) is 11.9 nM. Compared with the last molecule, the Kd is about 56-fold lower.

As to B4, the Kd was found to be 5.56 nM. Against the preceding molecule, the Kd is about 2.1-fold lower.

As to B5, the Kd came to 3.87 nM. The Kd values of the last two molecules are within 1.5-fold of each other.

B6 showed a Kd of 4.74 nM.

Consider B7, for which the Kd came to 8.84 nM.

Molecule B8 had a Kd of 5.23 nM.

Turning to B9, the Kd came to 4.23 nM.

As to B10, the Kd turned out to be 6.38 nM.

In the case of B11, the Kd amounted to 6.88 nM.

In turn, B12 displayed an equilibrium dissociation constant (Kd) of 8.41 nM. The Kd values of the last two molecules are within 1.5-fold of each other.

With B13, the dissociation constant Kd is 9.8 nM.

Consider B14, for which the dissociation constant (Kd) is 5.28 nM. This Kd lies about 1.9-fold lower than the previous one.

As for B15, the dissociation constant Kd was determined as 8.65 nM.

In turn, B16 displayed a Kd of 9.11 nM.

Take B17: the Kd amounted to 3.83 nM.

Consider B18, for which the Kd turned out to be 9.67 nM.

In the case of B19, the Kd came out at 7.27 nM.

On to B20, for which the dissociation constant (Kd) was 9.51 nM.

As for B21, the dissociation constant (Kd) is 5.97 nM.

In turn, B22 yielded a Kd of 8.41 nM.

B23 yielded a dissociation constant (Kd) of 8.72 nM. The Kd values of the last two molecules are within 1.5-fold of each other.

B24 came in with a Kd of 4.26 nM.

Take B25: the Kd amounted to 7.04 nM.

The molecule B26 registered a Kd of 12.9 nM.

B27 came in with a Kd of 3.87 nM.

In general, Kd refers to the constant that tells how readily two partners part at equilibrium. Higher therefore signals weaker binding.
